B1: Phospholipase D alpha 1 (Arabidopsis thaliana (Mouse-ear cress)), Q38882 (parent)
chain: MAQHLLHGTLHATIYEVDALHGGGVRQGFLGKILANVEETIGVGKGETQLYATIDLQKARVGRTRKIKNEPKNPKWYESFHIYCAHLASDIIFTVKDDNPIGATLIGRAYIPVDQVINGEEVDQWVEILDNDRNPIQGGSKIHVKLQYFHVEEDRNWNMGIKSAKFPGVPYTFFSQRQGCKVSLYQDAHIPDNFVPRIPLAGGKNYEPQRCWEDIFDAISNAKHLIYITGWSVYAEIALVRDSRRPKPGGDVTIGELLKKKASEGVRVLLLVWDDRTSVDVLKKDGLMATHDEETENFFRGSDVHCILCPRNPDDGGSIVQSLQISTMFTHHQKIVVVDSEMPSRGGSEMRRIVSFVGGIDLCDGRYDTPFHSLFRTLDTVHHDDFHQPNFTGAAITKGGPREPWHDIHSRLEGPIAWDVMYNFEQRWSKQGGKDILVKLRDLSDIIITPSPVMFQEDHDVWNVQLFRSIDGGAAAGFPESPEAAAEAGLVSGKDNIIDRSIQDAYIHAIRRAKDFIYVENQYFLGSSFAWAADGITPEDINALHLIPKELSLKIVSKIEKGEKFRVYVVVPMWPEGLPESGSVQAILDWQRRTMEMMYKDVIQALRAQGLEEDPRNYLTFFCLGNREVKKDGEYEPAEKPDPDTDYMRAQEARRFMIYVHTKMMIVDDEYIIIGSANINQRSMDGARDSEIAMGGYQPHHLSHRQPARGQIHGFRMSLWYEHLGMLDETFLDPSSLECIEKVNRISDKYWDFYSSESLEHDLPGHLLRYPIGVASEGDITELPGFEFFPDTKARILGTKSDYLPPILTT
partner: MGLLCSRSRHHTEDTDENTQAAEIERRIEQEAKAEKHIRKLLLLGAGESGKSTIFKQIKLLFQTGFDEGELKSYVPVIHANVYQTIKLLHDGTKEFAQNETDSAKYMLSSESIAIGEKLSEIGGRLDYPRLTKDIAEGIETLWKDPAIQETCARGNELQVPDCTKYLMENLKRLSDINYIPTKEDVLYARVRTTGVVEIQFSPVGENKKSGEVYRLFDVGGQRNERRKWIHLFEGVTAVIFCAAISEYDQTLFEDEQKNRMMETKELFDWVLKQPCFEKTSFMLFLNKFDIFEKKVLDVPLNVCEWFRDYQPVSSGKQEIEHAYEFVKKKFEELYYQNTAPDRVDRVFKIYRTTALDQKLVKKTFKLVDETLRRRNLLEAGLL

Variants of: B1
Conditions: with gpa1_arath GPA1, P18064

Variant	effect of a mutation on the interaction
E563A	decreasing interaction
K564A	disrupting interaction
F565A	decreasing interaction

Variants of: B1
Conditions: with gpa1_arath GPA1, P18064
Remark: another data set of the same source

Variant	effect of a mutation on the interaction
K564A	decreasing interaction

Reference: IntAct's records for PubMed 14594812
